Experiments:
[1] = target: Human FcγRIIa (H131) (human) (UniProt P12318); assay: SPR (Biacore); His-tagged FcγR captured, antibody injected; kinetic fit or steady state
[2] = target: Human FcγRIIa (R131) (human) (UniProt P12318); assay: as above
Human FcγRIIb (human) [3] = target: Human FcγRIIb (human) (UniProt P31994); assay: as above
[4] = target: Human FcγRIIa (H131) (human) (UniProt P12318); assay: SPR (Biacore); His-tagged FcγR captured on anti-penta-His chip, antibody injected
[5] = target: Human FcγRIIa (R131) (human) (UniProt P12318); assay: as above
Human FcγRIIb (human) [6] = target: Human FcγRIIb (human) (UniProt P31994); assay: as above
[7] = target: Human FcγRIIIa (V176) (human) (UniProt P08637); assay: as above
Human FcγRIIIa (V176) (human), sequence (P08637 17-208 F176V limits assumed): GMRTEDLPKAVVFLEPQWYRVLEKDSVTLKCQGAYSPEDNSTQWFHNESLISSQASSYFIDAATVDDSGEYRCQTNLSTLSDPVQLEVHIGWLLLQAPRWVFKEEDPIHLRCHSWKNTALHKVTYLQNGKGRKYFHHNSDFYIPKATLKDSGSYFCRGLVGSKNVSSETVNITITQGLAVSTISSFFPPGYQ

Human FcγRIIb (human), sequence (P31994 46-217 limits assumed): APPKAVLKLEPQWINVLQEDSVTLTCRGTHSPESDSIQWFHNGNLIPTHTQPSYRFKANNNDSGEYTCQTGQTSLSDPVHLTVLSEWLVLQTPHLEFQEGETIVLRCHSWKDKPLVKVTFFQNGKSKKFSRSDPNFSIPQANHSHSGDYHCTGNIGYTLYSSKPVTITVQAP
Human FcγRIIa (R131) (human), sequence (P12318 36-218 H167R limits assumed): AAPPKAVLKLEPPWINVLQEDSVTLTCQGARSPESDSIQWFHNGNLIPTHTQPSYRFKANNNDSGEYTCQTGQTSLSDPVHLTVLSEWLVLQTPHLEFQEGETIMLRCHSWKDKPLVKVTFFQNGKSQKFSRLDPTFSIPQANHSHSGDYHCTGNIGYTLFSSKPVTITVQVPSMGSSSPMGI
Human FcγRIIa (H131) (human), sequence (P12318 36-218 limits assumed): as the sequence (P12318 36-218 H167R limits assumed) above, with R132H counted along it

B1: mAb3, IgG4s (antibody, part only; not given: variable domains and light chain, not shown: another chain or arm of the molecule)
Fc: ESKYGPPCPPCPAPPVAGPSVFLFPPKPKDTLMISRTPEVTCVVVDVSQEDPEVQFNWYVDGVEVHNAKTKPREEQFNSTYRVVSVLTVLHQDWLNGKEYKCKVSNKGLPSSIEKTISKAKGQPREPQVYTLPPSQEEMTKNQVSLTCLVKGFYPSDIAVEWESNGQPENNYKTTPPVLDSDGSFFLYSRLTVDKSRWQEGNVFSCSVMHEALHNHYTQKSLSLSLGK
- Kd [1]: 1610 nM
- Kd [2]: 1320 nM
- Kd (Human FcγRIIb (human) [3]): 12.3 µM
- binding signal (RU) [4]: 419 RU
- binding signal (RU) [5]: 340 RU
- binding signal (RU) (Human FcγRIIb (human) [6]): 226 RU
- binding signal (RU) [7]: 34 RU

— US20250109207A1
